Positions count from the first letter of the chain named.
B1: EP97-G05 scFv (scFv)
scFv: EVQLVQSGAEVKKPGASVKVSCKASGYTFTSYGISWVRQAPGQGLEWMGWISAYNGNTNYAQKLQGRVTMTTDTSTSTAYMELRSLRSDDTAVYYCARDYGDPSGDDYWGQGTLVTVSSGGGGSGGGGSGGGGSEIVLTQSPATLSVSPGEGVTLSCRASQSVSSNLAWYQQRPGQAPRLLIYGASIKATDVPDRFSGGGSGTDFTLSISNLQSEDFAVYYCQQYHTWPPVTFGGGTKVEIK
notes: VH-VL orientation; also called EP097-G05; not shown: C-terminal flag and 6xHIS tag
B2: EP35-B05 scFv (scFv)
scFv: QVQLVQSGAEVKKPGASVKVSCKASGYTFTSYGISWVRQAPGQGLEWMGWISAYNGNTNYAQKLQGRVTMTTDTSTSTAYMELRSLRSDDTAVYYCARDSGNSPIDYWGQGTLVTVSSGGGGSGGGGSGGGGSEIVMTQSPATLSVSPGEGVTLSCRASQSVSSNLAWYQQRPGQAPRLLIYGASIKATDVPDRFSGGGSGTDFTLSISNLQSEDFAVYYCQQYHTWPPVTFGGGTKVEIK
notes: VH-VL orientation; also called EP35-B5; not shown: C-terminal flag and 6xHIS tag
B3: EP35-C8 scFv (scFv)
scFv: B2 scFv with R87G, N102S, P104D, I105L, R172K, I181M, N210S
notes: VH-VL orientation; also called EP35-C08; not shown: C-terminal flag and 6xHIS tag
B4: EP97-F01 scFv (scFv)
scFv: B2 scFv with S100H, G101I, N102A, S103A, P104A, I105G, S209T
notes: VH-VL orientation; not shown: C-terminal flag and 6xHIS tag
B5: EP160-C07 scFv (scFv)
scFv: B2 scFv with V2M, S100A, G101V, N102A, S103G, P104S, I105R, D106G, M137L, G234E
notes: VH-VL orientation; also called EP160-007; not shown: C-terminal flag and 6xHIS tag
B6: EP160-E03 scFv (scFv)
scFv: EVQLVQSGGGVVQPGKSLRLSCAASGFTFSSYGMHWVRQAPGKGLEWVAVIWYDGSNKYYADSVKGRFTISRDNSKNTLYLQMNSLRAEDTAVYYCARDGWTGFDYWGQGTTVTVSSGGGGSGGGGSGGGGSEIVLTQSPATLSVSPGEGVTLSCRASQSVSSNLAWYQQRPGQAPRLLIYGASIKATDVPDRFSGGGSGTDFTLSISNLQSEDFAVYYCQQYHTWPPVTFGGGTKVEIK
notes: as for B4
B7: EP35-A7 scFv (scFv)
scFv: EVQLVESRGGVVQPGGSLRLSCAASGFTFSSYGMHWVRQAPGKGLEWVAFIRYDGSNKYYADSVKGRFTISRDNSKNTLYLQMNSLRAEDTAVYYCAKETVTTNYYYYMDVWGKGTTVTVSSGGGGSGGGGSGGGGSDVVMTQSPLSLPVTLGQPASISCRSSRSLEYNDGNTYLNWFHQRPGQSPRRLIYKVSNRDSGVPDRFSGSGSDTDFTLKISRVEAEDVGIYYCMQGTHWPLTFGQGTRLEIK
notes: as for B4
B8: EP35-E6 scFv (scFv)
scFv: QVQLVESGGALVQPGGSLRLSCVVSGFPFSTAWMNWVRQAPGKGLEWVARIKSEAHGGTTHYAPPVQGRFTISRDDSKNTVSLQMNSLKTEDTGVYYCGDFQWGQGTLVTVSSGGGGSGGGGSGGGGSVIWMTQSPSSLSASVGDRITITCQASQDISNFLNWYQQKPGEAPKLLLYDASNLERGVPSRFSGGGSGTDFTLTISSLQPEDIATYFCQQYDNLPLTFGGGTKVEIK
notes: as for B4
B9: EP35-C6 scFv (scFv)
scFv: QVQLVESGGGVVQPGGSLRLSCAASGFPFSRFGIHWVRQAPGKGLDWVAFIRTDGGSQHYADSVKGRFTISRDNSENMVYLQMNSLRVDDTALYYCAKDPPRVTGNTGYDYDWGQGVQVTVSSGGGGSGGGGSGGGGSDIVMTQSPDSLAVSLGERATINCKSSQSVLYSANNKNCLAWYQQKSGQPPKLLIYWASTRESGVPGRFSGSGSGTDFTLTISSLQAEDVAVYYCQQYYSPPRTFGQGTKLEIK
notes: VH-VL orientation; also called EP35-C06; not shown: C-terminal flag and 6xHIS tag
B10: EP35-D6 scFv (scFv)
scFv: QVQLVQSGTEVKKPGASVKVSCKASGYTFTNNAITWVRQAPGQGLEWMGYISTSSDNINYAQKFRGRLTLTTDTSTGTAYMELSSLRSDDTATYYCARDGIFGGRDDPWGQGTLVTVSSGGGGSGGGGSGGGGSDIVMTQSPSSLSASVGDRVTITCQASQDISNYLNWYQQKPGKAPKLLIYDASNLETGVPSRFSGSGSETDFTITISSLQPEDIATYYCQQYDNLPLTFGGGTKVR
notes: as for B4
B11: EP160-H02 scFv (scFv)
scFv: QVQLVQSGAEVKKPGASVKVSCKASGYTFTSYGISWVRQAPGQGLEWMGGIIAYNGNTNYAQKLQGRVTMTTDTSTSTAYMELRSLRSDDTAVYYCARDPPEYSSSAGTDYWGQGTLVTVSSGGGGSGGGGSGGGGSEIVMTQSPATLSVSPGEGVTLSCRASQSVSSNLAWYQQRPGQAPRLLIYGASIKATDVPDRFSGGGSGTDFTLSITNLQSEDFAVYYCQQYHTWSPVTFGGGTKVEIK
notes: as for B4
B12: EP97-B03 scFv (scFv)
scFv: QLVQSGAEVKKPGASVKVSCKASGYTFSSYGITWVRQAPGQGLEWMGWISAYNGNTNYAQKFQGRVTLTTDTSTSIAYMELRSLTSDDTAVYYCATGGQEDYWGQGTLVTVSSGGGGSGGGGSGGGGSEIVLTQSPATLSVSPGERATLSCRASQSVSSNLAWYQQKPGQAPRLLIYGASTRATGIPARFSGSGSGTEFTLTISSLQSEDFAVYYCQQYNSWPPLTFGGGTKVEIK
notes: as for B4
B13: EP160-G05 scFv (scFv)
scFv: EVQLVQSGAEVKKPGASVKVSCKASGYTFTSYGISWVRQAPGQGLEWMGWISAYNGNTNYAQKLQGRVTMTTDTSTSTAYMELRSLRSDDTAVYYCARDPSMDVWGQGTTVTVSSGGGGSGGGGSGGGGSEIVLTQSPATLSVSPGERATLSCRASQSVSSNLAWYQQKPGQAPRLLIYGASTRATGIPARFSGSGSGTEFTLTISSLQSEDFAVYYCQQYNSWPPITFGQGTRLEIK
notes: as for B4
B14: EP35-F7 scFv (scFv)
scFv: B6 scFv with K16R, T102K
notes: also called EP35-F07; not shown: C-terminal flag and 6xHIS tag
B15: EP97-A01 scFv (scFv)
scFv: B6 scFv with K16R, R19K, T102K
notes: as for B4

Each binder was assayed against T1, full-length human CD22 fused with flag and Myc tags at the C-terminus, on HEK293 or K562 cells (human, UniProt P20273 20-847) (assay: FACS, scFv titrated on CD22-expressing cells, anti-His Alexa 488).
T1 construct: whole, on cells; also called CD22/K562; CD22/HEK293; not shown: C-terminal flag and Myc tags of the pCMV6-Entry vector
T1 sequence (looked up): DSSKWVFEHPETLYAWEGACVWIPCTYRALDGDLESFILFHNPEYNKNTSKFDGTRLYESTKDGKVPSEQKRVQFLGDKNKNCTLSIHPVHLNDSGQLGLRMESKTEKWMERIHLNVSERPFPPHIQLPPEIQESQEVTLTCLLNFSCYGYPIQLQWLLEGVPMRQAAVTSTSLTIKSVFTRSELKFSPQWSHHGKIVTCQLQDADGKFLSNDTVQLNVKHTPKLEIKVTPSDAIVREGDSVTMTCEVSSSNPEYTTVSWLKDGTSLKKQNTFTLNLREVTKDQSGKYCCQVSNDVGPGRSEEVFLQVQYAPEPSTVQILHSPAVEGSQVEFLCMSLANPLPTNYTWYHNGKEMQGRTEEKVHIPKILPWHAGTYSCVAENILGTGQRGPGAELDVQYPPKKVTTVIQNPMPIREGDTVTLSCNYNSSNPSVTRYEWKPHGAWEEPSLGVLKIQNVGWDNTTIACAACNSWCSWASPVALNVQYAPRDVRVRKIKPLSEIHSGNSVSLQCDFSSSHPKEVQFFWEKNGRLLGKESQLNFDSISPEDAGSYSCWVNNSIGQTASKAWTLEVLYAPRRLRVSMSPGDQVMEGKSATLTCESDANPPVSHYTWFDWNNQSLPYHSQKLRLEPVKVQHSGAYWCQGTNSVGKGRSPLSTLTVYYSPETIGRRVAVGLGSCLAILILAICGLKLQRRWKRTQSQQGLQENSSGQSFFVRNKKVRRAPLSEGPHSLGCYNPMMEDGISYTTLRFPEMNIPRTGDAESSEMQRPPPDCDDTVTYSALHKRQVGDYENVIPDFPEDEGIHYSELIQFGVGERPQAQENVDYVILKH

Binder | EC50 [nM]
B1 | 3.3
B2 | 77
B3 | 4.6
B4 | 10
B5 | 5.2
B6 | 6.8
B7 | 10.4
B8 | 14.2
B9 | 19.3
B10 | 47
B11 | 0.68
B12 | 0.7
B13 | 2.9

Each binder was assayed against T2, human CD22-Fc fusion protein (human, UniProt P20273 20-687, limits assumed) (assay: SPR Biacore T200; CD22-Fc captured on Protein G chip, scFv as analyte;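 also: run in 1×HBST buffer, with the response of reference flow cell 1 subtracted from the CD22 capture cell and kinetics fitted in Biacore T200 evaluation software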).
T2 construct: also called recombinant CD22-Fc fusion protein; not shown: Fc part
T2 sequence (looked up): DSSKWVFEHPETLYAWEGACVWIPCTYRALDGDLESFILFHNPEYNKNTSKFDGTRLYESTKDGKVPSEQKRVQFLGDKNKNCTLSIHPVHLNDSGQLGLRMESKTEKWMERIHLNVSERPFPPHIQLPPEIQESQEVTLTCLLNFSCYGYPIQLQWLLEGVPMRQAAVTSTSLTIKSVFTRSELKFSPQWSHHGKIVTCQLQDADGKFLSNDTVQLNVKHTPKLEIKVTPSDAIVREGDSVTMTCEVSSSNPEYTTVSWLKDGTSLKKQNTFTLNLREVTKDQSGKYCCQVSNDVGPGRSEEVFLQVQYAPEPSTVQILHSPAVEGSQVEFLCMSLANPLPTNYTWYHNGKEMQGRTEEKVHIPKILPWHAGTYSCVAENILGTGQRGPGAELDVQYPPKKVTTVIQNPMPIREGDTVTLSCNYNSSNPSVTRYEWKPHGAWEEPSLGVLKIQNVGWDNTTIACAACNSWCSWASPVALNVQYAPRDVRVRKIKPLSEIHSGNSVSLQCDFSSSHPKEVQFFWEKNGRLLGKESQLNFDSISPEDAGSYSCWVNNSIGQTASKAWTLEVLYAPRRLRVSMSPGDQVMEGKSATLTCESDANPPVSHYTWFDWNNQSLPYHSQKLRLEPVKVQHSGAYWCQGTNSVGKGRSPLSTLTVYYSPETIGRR

Binder | Kd [nM] | koff [s⁻¹] | kon [M⁻¹ s⁻¹]
B1 | 0.166 | 4.19e-05 | 252000
B4 | 0.219 | 0.000195 | 888000
B14 | 11.3 | 0.00098 | 86900
B15 | 14.2 | 0.00101 | 71300
B6 | 5.52 | 0.00164 | 297000
B9 | 15.8 | 0.000985 | 62500
B11 | 1.84 | 0.000112 | 60900
B12 | 0.846 | 0.000318 | 376000

Source: patent publication US20220298257A1 (ELPIS BIOPHARMACEUTICALS, published 2022)
